Target: F-actin (rat (endogenous in MTLn3)) (UniProt P60711)
Assay: FLIP

Substance: GFP-cofilin (from UniProt P45592 1-166) (natural protein)
- tau of the slow FLIP component (assigned to F-actin-bound cofilin): 26 s
